Biological target: T1, endogenous NIBP (NIK and IKK2 Binding Protein) in MCF7 cells (human (MCF7 cells; species not printed …, UniProt Q96Q05 1-1148, limits assumed)
T1 construct: Immunoprecipitated from whole cell lysate with anti-NIBP antibody
Assay: co-immunoprecipitation with anti-NIBP antibody from MCF7 lysate, immunoblot anti-IKK1/2 and anti-IKK1
Excerpt: Endogenous NIBP interacts with endogenous IKK2 in breast cancer cells. NIBP association with IKK2, but not IKK1, occurred in MCF7 cells. The level of IKK1 was confirmed by immunoblotting of the same blot (without stripping) with a specific anti-IKK1 antibody. The IKK2 co-immunoprecipitated with NIBP was phosphorylated as shown by the band shift compared to the input and the immunoblotting with anti-phospho IKK1/2(Ser-177/181) antibody (FIG. 4).

T1 sequence (Q96Q05 whole entry): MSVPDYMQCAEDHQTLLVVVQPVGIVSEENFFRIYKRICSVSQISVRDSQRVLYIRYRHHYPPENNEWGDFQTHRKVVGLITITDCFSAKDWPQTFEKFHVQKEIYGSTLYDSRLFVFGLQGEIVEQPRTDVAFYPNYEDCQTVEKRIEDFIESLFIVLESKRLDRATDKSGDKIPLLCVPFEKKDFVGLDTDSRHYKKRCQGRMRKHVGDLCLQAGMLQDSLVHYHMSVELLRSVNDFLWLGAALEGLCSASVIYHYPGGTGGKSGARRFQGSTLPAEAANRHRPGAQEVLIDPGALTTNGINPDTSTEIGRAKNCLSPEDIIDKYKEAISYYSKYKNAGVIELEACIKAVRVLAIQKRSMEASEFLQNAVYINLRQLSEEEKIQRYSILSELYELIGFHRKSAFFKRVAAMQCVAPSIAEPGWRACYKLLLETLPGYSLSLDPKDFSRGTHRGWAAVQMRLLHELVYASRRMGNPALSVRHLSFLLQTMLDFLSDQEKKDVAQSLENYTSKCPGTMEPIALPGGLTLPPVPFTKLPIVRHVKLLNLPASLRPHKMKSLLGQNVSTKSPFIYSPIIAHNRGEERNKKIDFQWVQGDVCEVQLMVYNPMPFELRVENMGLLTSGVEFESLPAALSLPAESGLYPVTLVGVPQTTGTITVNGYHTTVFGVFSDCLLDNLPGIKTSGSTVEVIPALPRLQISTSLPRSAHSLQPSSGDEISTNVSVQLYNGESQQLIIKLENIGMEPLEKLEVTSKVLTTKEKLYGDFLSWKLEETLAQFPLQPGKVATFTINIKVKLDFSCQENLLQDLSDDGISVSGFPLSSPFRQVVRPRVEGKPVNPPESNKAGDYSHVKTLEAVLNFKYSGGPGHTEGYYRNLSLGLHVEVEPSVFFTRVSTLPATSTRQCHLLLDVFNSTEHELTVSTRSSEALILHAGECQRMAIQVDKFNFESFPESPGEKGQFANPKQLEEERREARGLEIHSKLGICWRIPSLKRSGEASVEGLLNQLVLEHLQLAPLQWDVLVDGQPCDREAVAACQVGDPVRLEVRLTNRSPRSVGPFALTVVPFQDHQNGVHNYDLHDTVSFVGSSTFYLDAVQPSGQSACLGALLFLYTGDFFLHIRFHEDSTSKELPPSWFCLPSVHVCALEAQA

binding result: no binding
B1: endogenous IKK1 in MCF7 cells (enzyme, UniProt O15111 1-745, looked up)
chain: MERPPGLRPGAGGPWEMRERLGTGGFGNVCLYQHRELDLKIAIKSCRLELSTKNRERWCHEIQIMKKLNHANVVKACDVPEELNILIHDVPLLAMEYCSGGDLRKLLNKPENCCGLKESQILSLLSDIGSGIRYLHENKIIHRDLKPENIVLQDVGGKIIHKIIDLGYAKDVDQGSLCTSFVGTLQYLAPELFENKPYTATVDYWSFGTMVFECIAGYRPFLHHLQPFTWHEKIKKKDPKCIFACEEMSGEVRFSSHLPQPNSLCSLVVEPMENWLQLMLNWDPQQRGGPVDLTLKQPRCFVLMDHILNLKIVHILNMTSAKIISFLLPPDESLHSLQSRIERETGINTGSQELLSETGISLDPRKPASQCVLDGVRGCDSYMVYLFDKSKTVYEGPFASRSLSDCVNYIVQDSKIQLPIIQLRKVWAEAVHYVSGLKEDYSRLFQGQRAAMLSLLRYNANLTKMKNTLISASQQLKAKLEFFHKSIQLDLERYSEQMTYGISSEKMLKAWKEMEEKAIHYAEVGVIGYLEDQIMSLHAEIMELQKSPYGRRQGDLMESLEQRAIDLYKQLKHRPSDHSYSDSTEMVKIIVHTVQSQDRVLKELFGHLSKLLGCKQKIIDLLPKVEVALSNIKEADNTVMFMQGKRQKEIWHLLKIACTQSSARSLVGSSLEGAVTPQTSAWLPPTSAEHDHSLSCVVTPQDGETSAQMIEENLNCLGHLSTIIHEANEEQGNSMMNLDWSWLTE
notes: Endogenous protein in cell lysate

From US20120258539A1 (TEMPLE UNIVERSITY OF THE COMMONWEALTH OF HIGHER EDUCATION …, published 2012)
